# In US10703792B2, “Insulin analogues with selective signaling properties and reduced mitogenicity” (Case Western Reserve University, priority 2015, dated 2020):
# Columns and labels:
# IR = IR (Homo sapiens, UniProt P06213); conditions: known in the art; cited from earlier work
# Sprague-Dawley rats = conditions: one year of treatment; cited from earlier work
# [1] = tested on: human breast-cancer cell line MCF-7; assay: MCF-7 colony formation in soft agar (mitogenicity); format: cell-based; conditions: 100 nM protein, 3 weeks, relative to basal; preliminary assays
# Protocol: Assay for MCF-7 Colony Formation in Soft Agar.
# In our preliminary assays MCF-7 cells (1.5×10^3 cells in 0.75 ml, obtained from ATCC cat #HTB-22), were mixed with an equal volume Bacto-agar at 42° C. This 0.3% agar suspension was poured over a 1.5-ml base of 0.6% agar in 12-well plates and overlaid with basal growth medium with (or without) insulin or insulin analogues at a protein concentration of 100 nM, which was replenished 3× per week. Plates were incubated at 37° C. in a CO2 tissue-culture incubator for 3 weeks, at which time colonies were stained with crystal violet and counted under an inverted microscope. A positive control was provided by IGF-I (not shown) and a negative control by medium lacking insulin or an insulin analogue (“basal” in FIG. 6).
# [2] = tested on: male Lewis rats rendered diabetic by streptozotocin; conditions: statement on a current insulin product, not tested here; cited from earlier work
substance,measurement,setting,value
"Asp^B10-insulin: insulin analogue with His^B10 substituted by Asp, known in the art",Enhancement of affinity for the IR relative to insulin,IR,twofold
same,Mammary tumors on chronic treatment,Sprague-Dawley rats,excess mammary tumors
human proinsulin: wild-type human proinsulin (SEQ ID NO: 1),Mitogenicity: MCF-7 colony formation in soft agar,[1],negligible activities
insulin detemir,Nanomoles needed for equivalent therapeutic effects,[2],threefold
